Test results taken from the supplement of paper PMC11246515.
± gives the standard deviation of the averaged measurements.

Assay: total protein half-life in vivo (active degradation + dilution); higher = more stable protein
[1] = wild type E. coli NCM3722, growth: C-lim chemostat, doubling time 3 h
[2] = wild type E. coli NCM3722, growth: C-lim chemostat, doubling time 12 h
[3] = E. coli NCM3722 delta-smpB, growth: N-lim chemostat, doubling time 6 h
[4] = wild type E. coli NCM3722, growth: C-lim chemostat, doubling time 6 h
[5] = wild type E. coli NCM3722, growth: N-lim chemostat, doubling time 12 h
[6] = wild type E. coli NCM3722, growth: P-lim chemostat, doubling time 6 h
[7] = wild type E. coli NCM3722, growth: P-lim chemostat, doubling time 12 h
[8] = E. coli NCM3722 delta-clpP delta-lon delta-hslV, growth: N-lim chemostat, doubling time 6 h
[9] = E. coli NCM3722 delta-hslV, growth: N-lim chemostat, doubling time 6 h
[10] = E. coli NCM3722 delta-lon, growth: N-lim chemostat, doubling time 6 h
[11] = wild type E. coli NCM3722, growth: N-lim chemostat, doubling time 6 h
[12] = E. coli NCM3722 delta-clpP, growth: N-lim chemostat, doubling time 6 h

Row | Sequence | total protein half-life in vivo [1] [h] | total protein half-life in vivo [2] [h] | total protein half-life in vivo [3] [h] | total protein half-life in vivo [4] [h] | total protein half-life in vivo [5] [h] | total protein half-life in vivo [6] [h] | total protein half-life in vivo [7] [h] | total protein half-life in vivo [8] [h] | total protein half-life in vivo [9] [h] | total protein half-life in vivo [10] [h] | total protein half-life in vivo [11] [h] | total protein half-life in vivo [12] [h]
1 | MSESAFKDCFLTDVSADTRLFHFLARDYIVQEGQQPSWLFYLTRGRARLYATLANGRVSLIDFFAAPCFIGEIELIDKDHEPRAVQAIEECWCLALPMKHYRPLLLNDTLFLRKLCVTLSHKNYRNIVSLTQNQSFPLVNRLAAFILLSQEGDLYHEKHTQAAEYLGVSYRHLLYVLAQFIHDGLLIKSKKGYLIKNRKQLSGLALEMDPENKFSGMMQ [P0A9E9] | 1.56 | 2.53 | – | – | – | – | – | – | – | – | – | –
2 | MSESLHLTRNGSILEITLDRPKANAIDAKTSFEMGEVFLNFRDDPQLRVAIITGAGEKFFSAGWDLKAAAEGEAPDADFGPGGFAGLTEIFNLDKPVIAAVNGYAFGGGFELALAADFIVCADNASFALPEAKLGIVPDSGGVLRLPKILPPAIVNEMVMTGRRMGAEEALRWGIVNRVVSQAELMDNARELAQQLVNSAPLAIAALKEIYRTTSEMPVEEAYRYIRSGVLKHYPSVLHSEDAIEGPLAFAEKRDPVWKGR | 2.96 ± 0.038 | 8.84 ± 0.32 | 3.5 | 4.96 ± 0.18 | 5.66 | 5.25 ± 0.44 | 10.5 ± 0.97 | – | – | – | – | –
3 | MSESLSWMQTGDTLALSGELDQDVLLPLWEMREEAVKGITCIDLSRVSRVDTGGLALLLHLIDLAKKQGNNVTLQGVNDKVYTLAKLYNLPADVLPR | 2.98 ± 0.28 | 10.9 ± 4.8 | 5.75 ± 0.51 | 5.387 ± 0.018 | 10.2 | 5.332 ± 0.016 | 11.9 ± 0.66 | 6.59 ± 0.72 | 6.39 ± 0.34 | 5.57 ± 0.6 | 4.86 ± 0.53 | –
4 | MSESVQSNSAVLVHFTLKLDDGTTAESTRNNGKPALFRLGDASLSEGLEQHLLGLKVGDKTTFSLEPDAAFGVPSPDLIQYFSRREFMDAGEPEIGAIMLFTAMDGSEMPGVIREINGDSITVDFNHPLAGQTVHFDIEVLEIDPALEA [P0AEM0] | 2.84 | 9.21 ± 1.6 | 3.85 ± 0.14 | 4.78 ± 0.094 | 5.91 | 5.49 ± 0.13 | 11.6 | 4.8 | – | 5.05 | 4.44 | 4.79
5 | MSETASWQPSASIPNLLKRAAIMAEIRRFFADRGVLEVETPCMSQATVTDIHLVPFETRFVGPGHSQGMNLWLMTSPEYHMKRLLVAGCGPVFQLCRSFRNEEMGRYHNPEFTMLEWYRPHYDMYRLMNEVDDLLQQVLDCPAAESLSYQQAFLRYLEIDPLSADKTQLREVAAKLDLSNVADTEEDRDTLLQLLFTFGVEPNIGKEKPTFVYHFPASQASLAQISTEDHRVAERFEVYYKGIELANGFHELTDAREQQQRFEQDNRKRAARGLPQHPIDQNLIEALKVGMPDCSGVALGVDRLVMLALGAETLAEVIAFSVDRA [P0A8N7] | 2.71 ± 0.4 | 9.92 | 3.93 ± 0.61 | 6.14 | – | 6.35 ± 0.51 | 14.41 ± 0.11 | 5.63 | 3.95 | 3.35 | 3.34 | 4.37
6 | MSEYRRYYIKGGTWFFTVNLRNRRSQLLTTQYQMLRHAIIKVKRDRPFEINAWVVLPEHMHCIWTLPEGDDDFSSRWREIKKQFTHACGLKNIWQPRFWEHAIRNTKDYRHHVDYIYINPVKHGWVKQVSDWPFSTFHRDVARGLYPIDWAGDVTDFSAGERIIS | 1.93 | – | – | – | – | – | – | 5.68 | – | – | – | –
7 | MSFDSLGLSPDILRAVAEQGYREPTPIQQQAIPAVLEGRDLMASAQTGTGKTAGFTLPLLQHLITRQPHAKGRRPVRALILTPTRELAAQIGENVRDYSKYLNIRSLVVFGGVSINPQMMKLRGGVDVLVATPGRLLDLEHQNAVKLDQVEILVLDEADRMLDMGFIHDIRRVLTKLPAKRQNLLFSATFSDDIKALAEKLLHNPLEIEVARRNTASDQVTQHVHFVDKKRKRELLSHMIGKGNWQQVLVFTRTKHGANHLAEQLNKDGIRSAAIHGNKSQGARTRALADFKSGDIRVLVATDIAARGLDIEELPHVVNYELPNVPEDYVHRIGRTGRAAATGEALSLVCVDEHKLLRDIEKLLKKEIPRIAIPGYEPDPSIKAEPIQNGRQQRGGGGRGQGGGRGQQQPRRGEGGAKSASAKPAEKPSRRLGDAKPAGEQQRRRRPRKPAAAQ | 3.12 | 14.7 ± 0.98 | 4.98 ± 0.23 | 7.2 | 8.71 ± 0.062 | 4.83 ± 0.43 | 9.31 ± 0.65 | 4.67 ± 1.2 | 5.007 ± 0.03 | 5.23 ± 1.5 | 5.3 ± 0.071 | 5.49 ± 0.3
8 | MSFFISDAVAATGAPAQGSPMSLILMLVVFGLIFYFMILRPQQKRTKEHKKLMDSIAKGDEVLTNGGLVGRVTKVAENGYIAIALNDTTEVVIKRDFVAAVLPKGTMKAL [P0ADZ7] | 3.16 ± 0.14 | 11.5 ± 0.56 | 6.28 ± 0.31 | 6.018 ± 0.04 | 12.8 ± 2 | 6.55 ± 0.62 | 13 ± 0.39 | 5.95 ± 0.52 | 5.78 ± 0.33 | 5.892 ± 0.037 | 5.64 ± 0.49 | 6.69 ± 0.75
9 | MSFSVQETLFSLLQHNAISGHENAVADVMLCEFRRQAKEVWRDRLGNVVARYGSDKPDALRLMIFAHMDEVGFMVRKIEPSGFLRFERVGGPAQVTMAGSIVTLTGDKGPVMGCIGIKSYHFAKGDERTQSPSVDKLWIDIGAKDKDDAIRMGIQVGTPVTLYNPPQLLANDLVCSKALDDRLGCTALLGVADAISTMELDIAVYLVASVQEEFNIRGIVPVLRRVKPDLAIGIDITPSCDTPDLHDYSEVRINQGVGITCLNYHGRGTLAGLITPPRLIRMLEQTALEHNIPVQREVAPGVITETGYIQVEQDGIPCASLSIPCRYTHSPAEVASLRDLTDCIRLLTALAGMSAAHFPVEPDSGTTQEAHPL | 3.05 ± 0.28 | 10.9 ± 0.36 | – | 6.24 ± 0.29 | – | – | 10.2 | > 8 | – | – | – | –
